In test [1] the target is T1, TNFR1-FC fusion (human TNFR1 receptor binding assay) (human, UniProt P19438 22-211, limits assumed).
T1 construct: also called TNFR1 (RBA); not shown: Fc part, captured by goat anti-human IgG (H&L); not described further
T1 sequence (looked up): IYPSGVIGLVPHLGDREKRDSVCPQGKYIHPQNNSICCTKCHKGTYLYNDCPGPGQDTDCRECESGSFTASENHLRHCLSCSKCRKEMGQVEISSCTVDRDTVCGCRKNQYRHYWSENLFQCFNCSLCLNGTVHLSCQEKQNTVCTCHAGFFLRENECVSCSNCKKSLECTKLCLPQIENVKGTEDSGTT
Nature of the test: RBA assay; taken as the value of the Fc fusion.

Test [2] addresses T2, TNFR1 on MRC-5 cells (UniProt P19438 30-455, limits assumed).
T2 sequence (looked up): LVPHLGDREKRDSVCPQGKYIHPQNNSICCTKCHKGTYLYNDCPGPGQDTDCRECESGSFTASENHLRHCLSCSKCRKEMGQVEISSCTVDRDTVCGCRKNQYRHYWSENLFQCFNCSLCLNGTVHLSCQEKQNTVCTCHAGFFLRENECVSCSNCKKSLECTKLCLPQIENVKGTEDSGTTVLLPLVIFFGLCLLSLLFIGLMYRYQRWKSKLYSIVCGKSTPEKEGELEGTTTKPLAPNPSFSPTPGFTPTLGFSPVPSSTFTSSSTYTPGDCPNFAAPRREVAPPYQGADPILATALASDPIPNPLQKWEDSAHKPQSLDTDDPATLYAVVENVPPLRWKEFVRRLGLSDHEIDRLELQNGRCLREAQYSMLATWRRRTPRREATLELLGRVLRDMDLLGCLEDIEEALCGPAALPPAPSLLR
Nature of the test: cell-based or functional assay.

B1: DMS1544 (DOM1h-131-206 Fc fusion) (Fc fusion, not shown: a dimerising Fc or GST)
chain: EVQLLESGGGLVQPGGSLRLSCAASGFTFAHETMVWVRQAPGKGLEWVSHIPPDGQDPFYADSVKGRFTISRDNSKNTLYLQMNSLRAEDTAVYHCALLPKRGPWFDYWGQGTLVTVSSASTHTCPPCPAPELLGGP
notes: Dimeric Fc fusion
In the case of B1, in test [1], the “Activity (nM), RBA” value amounted to 0.047 nM.

B2: DOM1h-131-206 (other)
VH: EVQLLESGGGLVQPGGSLRLSCAASGFTFAHETMVWVRQAPGKGLEWVSHIPPDGQDPFYADSVKGRFTISRDNSKNTLYLQMNSLRAEDTAVYHCALLPKRGPWFDYWGQGTLVTVSS
Consider B2, for which the “ND50, MRC-5 cell-based assay (TNFα stimulated IL-8 release)” value in test [2] turned out to be 0.71 nM.

Source of the values: patent publication US20100291103A1 (DOMANTIS, published 2010).
